How the values were obtained:
human LECs = assay: Human LECs incubated with Aβ42, bulk RNA-seq; format: cell-based; settings: 100 nM, 24 h, vs scrambled peptide
Experimental: To determine whether the increased levels of Aβ alone could account for the observed changes in the LEC transcriptome, human LECs were incubated with 100 nM human Aβ1-42 (a monomeric/dimeric preparation) or control scrambled human Aβ1-42 peptide for 24 or 72 h (FIG. 5J).
Cultures of human LECs. […]
Bulk RNA sequencing. […] The mergedfastq files were then chastity filtered to remove low quality bases, trimmed using the trimmomatic software, and mapped to the UCSC […] genome using Salmon (Harrow, J. et al. GENCODE: the reference human genome annotation for The ENCODE Project. Genome Res 22, 1760-1774, (2012); Patro, R., Duggal, G., Love, M. I., Irizarry, R. A. & Kingsford, C. Salmon provides fast and bias-aware quantification of transcript expression. Nat Methods 14, 417-419, (2017)). […] The resulting transcript abundances were read into R and summarized using tximport (Soneson, C., Love, M. I. & Robinson, M. D. Differential analyses for RNA-seq: transcript-level estimates improve gene-level inferences. F1000Res 4, 1521, (2015)). […]

5×FAD mice = assay: Meningeal lymphatic and blood vessel morphology after i.c.m. AAV1-mVEGF-C plus anti-Abeta antibody; format: in vivo, mouse; settings: adult 5×FAD mice, AAV1 vector i.c.m., meningeal whole mounts
Experimental: Adult 5×FAD mice were treated with a combination of VEGF-c and an antibody that binds amyloid beta (ABETA Mab1) administered into the cisterna magna (i.c.m). After administration of AAV1 vector expressing VEGF-c or eGFP and the antibody according to schematic shown in FIG. 1A, brain and meningeal morphology was observed. Representative images of the meningeal whole-mounts of 5×FAD mice treated with different combinations of mIgG2a or monoclonal anti-amyloid beta antibody (“ABETA Ab”) with AAV1-CMV-eGFP or AAV1-CMV-mVEGF-C are shown in FIG. 1B. Meninges were stained for LYVE-1 and CD31; scale bar, 1 mm; inset, 300 m (FIG. 1B) Measurements of transverse sinus diameter, coverage by LYVE-1negCD31^+ blood vessels, total number of lymphatic branches, transverse sinus lymphatic vessel diameter and coverage by LYVE-1+ lymphatic vessels (See FIGS. 1C-1G). Results in FIGS. 1C-1G are presented as mean±s.e.m.; n=7 in eGFP+mIgG2a, n=6 in eGFP+ABETA Ab, in mVEGF-C+mIgG2a and in mVEGF-C+ABETA Ab; Two-way ANOVA with Sidak's multiple comparison test. In FIGS. 1D and 1G, the units for the Y-axis are percentage of field of view (“% FOV”).
Science 352, 712-716, (2016)) or microhemorrhages in the brain and meninges (Salloway, S. et al. Two phase 3 trials of bapineuzumab in mild-to-moderate Alzheimer's disease. […]

APPswe mice = assay: Brain Aβ plaques in aged APPswe mice after i.c.m. AAV1-mVEGF-C plus anti-Abeta antibody; format: in vivo, mouse; settings: with anti-amyloid beta antibody, vs eGFP vector
Text: Age of APPswe mice and treatment regimen of anti-amyloid beta antibody with AA1 vector expressing VEGF-c or eGFB via i.c.m are shown in FIG. 3A. Results of behavioral tests (open field (OF), novel location recognition (NLR) and contextual fear conditioning (CFC)) are shown in FIGS. 3B-3D. […] Time investigating one of the object location (% of total time investigating objects) in the training trial and time investigating the novel object location (% of total time investigating) in the NLR test are shown in FIG. 3C. Representative images of the brain sections of APPswe mice treated with anti-Abeta antibody and with AAV1-CMV-eGFP or AAV1-CMV-mVEGF-C are shown in FIG. 3E. Brain sections were stained for Aβ and with DAPI; scale bar, 1 mm. FIGS. 3F-3G show plaque density (number of plaques per mm^2), average size (m^2) and coverage (% of brain section) in the cortex and amygdala or in the hippocampus. Results in FIGS. 3B-3D, 3F, and 3G are presented as mean s.e.m.; n=11 per group; Two-tailed unpaired Student's T test.
Intra-cisterna magna and intravenous injections. Mice were anaesthetized by intraperitoneal (i.p.) injection of a mixed solution of ketamine (100 mg/Kg) and xylazine (10 mg/Kg) in saline. […]
Immunohistochemistry, imaging and quantifications. […]

[1] = tested on: meningeal lymphatic vessels; settings: Example 4 of WO2017/210343; cited from earlier work

Aβ1-42: synthetic monomeric/dimeric human amyloid beta 1-42 peptides (Anaspec AS-20276)
gene expression in human LECs (human LECs): Changes in gene expression

B1: VEGF-c: VEGFR3 agonist polypeptide (SEQ ID NO: 1), flow modulator; in Examples 1-3 delivered by AAV1 vector expressing VEGF-c (protein, listed as Homo sapiens)
chain: MHLLGFFSVACSLLAAALLPGPREAPAAAAAFESGLDLSDAEPDAGEATAYASKDLEEQLRSVSSVDELMTVLYPEYWKMYKCQLRKGGWQHNREQANLNSRTEETIKFAAAHYNTEILKSIDNEWRKTQCMPREVCIDVGKEFGVATNTFFKPPCVSVYRCGGCCNSEGLQCMNTSTSYLSKTLFEITVPLSQGPKPVTISFANHTSCRCMSKLDVYRQVHSIIRRSLPATLPQCQAANKTCPTNYMWNNHICRCLAQEDFMFSSDAGDDSTDGFHDICGPNKELDEETCQCVCRAGLRPASCGPHKELDRNSCQCVCKNKLFPSQCGANREFDENTCQCVCKRTCPRNQPLNPGKCACECTESPQKCLLKGKKFHHQTCSCYRRPCTNRQKACEPGFSYSEEVCRCVPSYWKRPQMS
lymphatic diameter (5×FAD mice): increased lymphatic diameter
number of plaques in the cortex and amygdala (APPswe mice): reduced the number of plaques
number of plaques in the hippocampus (APPswe mice): reduced the number of plaques
diameters of meningeal lymphatic vessels [1]: increase the diameters of meningeal lymphatic vessels

— patent US20230067811A1, “MODULATING LYMPHATIC VESSELS IN NEUROLOGICAL DISEASE” (University of Virginia Patent Foundation, priority 2020, published 2023)
